Experimental data taken from paper PMC11199686.

What was measured:
[1] = target: fibrin made from purified fibrinogen with thrombin (UniProt P02679); test: radioligand binding; 125I-ligand (100,000 cpm) on fibrin-coated wells in veronal buffer ([…] sodium barbital, […] CaCl2, 0.5 mM MgCl2, pH 7.4) with 20, 75 or 150 mM NaCl; 30 min, 37°C; washes at the same NaCl
[2] = target: fibrin clots formed in human plasma (human (endogenous in plasma)) (UniProt P02679); test: ELISA; levels of endogenous factor H (captured on monoclonal MRCOX23) and C1q (captured on ovalbumin antigen-antibody complexes) in citrated plasma and in the serum from the same plasma; the loss on clotting is taken as binding to clots
[3] = target: fibrin made from purified fibrinogen with thrombin (UniProt P02679); test: radioligand binding; serial dilutions of 125I-ligand from 500,000 cpm/well on fibrinogen-, fibrin- or BSA-coated Maxisorp wells; 30 min, 37°C; 25 mM HEPES-0.1% Tween 20 pH 7.4 (20 mM in the legend), without or with 5 mg/ml fluid-phase BSA; bound label eluted with 0.1 M NaOH; Scatchard plot
[4] = target: fibrin made from purified fibrinogen with thrombin (UniProt P02679); test: radioligand binding; saturation: fixed 125I-factor H (250,000 cpm, 80 ng/well) mixed with unlabeled factor H (0-5,120 ng/well) on fibrin-coated wells; 30 min, 37°C
[5] = target: fibrin clots formed in human plasma (human (endogenous in plasma)) (UniProt P02679); test: co-sedimentation; time course: enhanced clots formed in plasma with 125I-ligand (25,000 cpm), eight times from 0 to 960 min at 37°C; washed with HEPES-1/2-saline (non-denaturing)
[6] = target: fibrin clots formed in human plasma (human (endogenous in plasma)) (UniProt P02679); test: cross-linking; 125I-ligand (25,000 cpm) with 0.9% plasma and 20 μg fibrinogen in 50 μl HEPES-1/2-saline, 20 mM CaCl2, 16 h, 37°C; cross-linking by the FXIIIa of the plasma; washed clots on reducing SDS-PAGE (4-12%), autoradiography
[7] = target: fibrin clots formed in human plasma (human (endogenous in plasma)) (UniProt P02679); test: co-sedimentation; enhanced clots: as the plasma clots but with extra fibrinogen (2 mg/ml) added; 40 min, 37°C; 70 mM, 140 mM or 1 M salt; washed with reaction buffer (HEPES-1/2-saline at 70 mM)
[8] = target: fibrin clots formed in human plasma (human (endogenous in plasma)) (UniProt P02679); test: co-sedimentation; time course: enhanced clots formed in plasma with 125I-ligand (25,000 cpm), eight times from 0 to 960 min at 37°C; washed three times with 10 mM HEPES, 70 mM NaCl, 0.5 mM EDTA, 5 M urea pH 7.4; what stays is judged covalently bound
[9] = target: fibrin made from purified fibrinogen with thrombin (UniProt P02679); test: co-sedimentation; fibrin-only clots: 3.5 mg/ml purified fibrinogen with 125I-ligand (25,000 cpm) in 10 mM HEPES, 70 mM NaCl, 5 mM CaCl2 pH 7.4, clotted with thrombin (8.75 μg/ml), 40 min, 37°C; washed with HEPES-1/2-saline
[10] = target: fibrin clots formed in human plasma (human (endogenous in plasma)) (UniProt P02679); test: co-sedimentation; clots formed in 45% human plasma with 20 mM CaCl2 in the presence of 125I-ligand (25,000 cpm), 40 min, 37°C, at about 70 mM, 140 mM or 1 M salt; clots spun at 1,000 x g and washed three times in reaction buffer; bound = input minus cpm in supernatants
[11] = target: fibrin clots formed in human plasma (human (endogenous in plasma)) (UniProt P02679); test: co-sedimentation; panel of 125I-labelled plasma proteins (25,000 cpm each) present while enhanced clots formed in plasma; 16 h, 37°C; clots washed three times in 10 mM HEPES, 70 mM NaCl, 0.5 mM EDTA, 5 M urea pH 7.4
[12] = target: fibrin made from purified fibrinogen with thrombin (UniProt P02679); test: radioligand binding; inhibition: 125I-factor H (2 μg/well) premixed on ice with unlabeled factor H (0-30 μg/well) or ovalbumin, on fibrin-coated wells; 30 min, 37°C

Chain of factor H (P08603 19-1231): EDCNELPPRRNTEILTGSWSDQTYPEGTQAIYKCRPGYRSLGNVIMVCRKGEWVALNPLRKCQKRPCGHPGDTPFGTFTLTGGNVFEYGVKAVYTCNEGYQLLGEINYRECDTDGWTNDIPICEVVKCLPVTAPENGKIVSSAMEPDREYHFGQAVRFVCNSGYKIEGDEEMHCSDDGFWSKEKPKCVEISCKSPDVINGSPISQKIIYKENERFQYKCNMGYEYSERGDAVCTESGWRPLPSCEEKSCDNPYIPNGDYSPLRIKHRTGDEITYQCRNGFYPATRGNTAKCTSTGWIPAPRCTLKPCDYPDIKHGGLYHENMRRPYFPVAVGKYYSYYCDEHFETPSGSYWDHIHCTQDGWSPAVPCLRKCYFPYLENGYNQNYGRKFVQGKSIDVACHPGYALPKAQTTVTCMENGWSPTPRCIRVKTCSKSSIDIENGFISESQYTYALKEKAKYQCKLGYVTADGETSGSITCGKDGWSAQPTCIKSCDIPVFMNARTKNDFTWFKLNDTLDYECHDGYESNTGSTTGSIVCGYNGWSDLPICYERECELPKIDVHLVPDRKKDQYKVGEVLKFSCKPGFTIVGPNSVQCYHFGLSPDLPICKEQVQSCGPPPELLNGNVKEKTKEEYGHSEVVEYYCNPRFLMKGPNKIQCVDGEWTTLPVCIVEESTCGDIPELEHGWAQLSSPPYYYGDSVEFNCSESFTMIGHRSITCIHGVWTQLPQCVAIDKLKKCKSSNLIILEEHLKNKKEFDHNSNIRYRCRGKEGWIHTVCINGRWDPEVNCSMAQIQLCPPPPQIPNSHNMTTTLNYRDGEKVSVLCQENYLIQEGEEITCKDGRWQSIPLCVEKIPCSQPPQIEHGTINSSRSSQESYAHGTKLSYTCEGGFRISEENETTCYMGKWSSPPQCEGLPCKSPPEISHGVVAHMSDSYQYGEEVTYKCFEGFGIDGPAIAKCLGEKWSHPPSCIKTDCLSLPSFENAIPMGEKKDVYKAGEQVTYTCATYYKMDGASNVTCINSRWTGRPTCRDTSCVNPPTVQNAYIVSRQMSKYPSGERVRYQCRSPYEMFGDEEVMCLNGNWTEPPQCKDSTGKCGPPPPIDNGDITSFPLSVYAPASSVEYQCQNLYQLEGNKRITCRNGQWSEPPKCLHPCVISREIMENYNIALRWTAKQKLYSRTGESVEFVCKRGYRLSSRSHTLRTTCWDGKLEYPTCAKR
Chain of UniProt P02679 (P02679 whole entry, looked up): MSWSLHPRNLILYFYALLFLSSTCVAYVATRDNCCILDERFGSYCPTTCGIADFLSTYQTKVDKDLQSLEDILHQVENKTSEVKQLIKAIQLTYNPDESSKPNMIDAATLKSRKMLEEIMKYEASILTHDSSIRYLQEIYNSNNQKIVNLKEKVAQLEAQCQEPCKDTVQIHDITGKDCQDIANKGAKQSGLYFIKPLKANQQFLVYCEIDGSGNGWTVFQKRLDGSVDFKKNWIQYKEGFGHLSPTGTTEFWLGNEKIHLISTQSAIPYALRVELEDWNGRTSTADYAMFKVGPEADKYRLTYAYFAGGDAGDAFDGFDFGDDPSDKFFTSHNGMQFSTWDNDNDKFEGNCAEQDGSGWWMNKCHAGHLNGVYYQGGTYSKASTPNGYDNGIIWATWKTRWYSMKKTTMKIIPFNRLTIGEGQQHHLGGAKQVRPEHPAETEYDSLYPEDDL

Row | binding at 75 mM NaCl relative to that at 20 mM NaCl [1] | percent of the plasma level lost in the serum of the same plasma (healthy volunteer sample) [2] | Kd [3] | percent of input bound (500,000 cpm/well) [3] | percent of input bound at saturation (input 3.5 μg/well) [4] | percent bound at 30 min, non-denaturing wash [5] | percent bound at 96 min, non-denaturing wash [5] | percent of 125I-factor H in the large cross-linked aggregate that did not enter the gel [6] | fold increase of percent bound, enhanced clots over plasma clots without added fibrinogen, at 140 mM NaCl [7] | percent bound to enhanced plasma clots (HEPES-1/2-saline wash) [7] | percent bound at 30 min, after urea wash [8] | percent bound at 96 min, after urea wash [8] | percent bound at 960 min, after urea wash [8] | percent bound to fibrin-only clots (HEPES-1/2-saline wash) [9] | percent bound to plasma clots at 70 mM salt [10] | Protein incorporated into fibrin clots (%) [11] | percent bound to fibrin clots [11] | percent inhibition of the binding of 125I-factor H at an equal molar ratio of unlabeled to labeled factor H [12] | Substance
1 | < 50% | 38% | 0.055 nM | 1.7% | 0.1% | 22% | 26% | 5.2% | 6 fold | 21.5% | 13% | 18% | 32.5% | 19% | 21.5% | 28.7% | 30% | 48% | factor H (from UniProt P08603 19-1231) (natural protein)
2 |  |  |  |  |  |  |  |  |  |  |  |  |  |  |  | 32.8% | 31% |  | plasminogen (natural protein)
